This is an account of results in patent publication US20170183660, “APTAMER TARGETING MAGE-A3 PEPTIDE AND USES THEREOF” (Academia Sinica, published 2017).

Series [1] deals with T1, MAGE-A3 peptide 111-125 (unmodified) (UniProt P43357).
T1 chain: RKVAELVHFLLLKYR
Nature of the series: ITC; 25 C, DPBS with 0.45% glucose, 5 mM MgCl2; dH -24 kcal/mol. The note with it: protein: synthetic; tags: none; peptide (synthetic, inferred). How it is done:
(§1) Thermodynamic profile of the interaction between DNA and peptide was measured with a MicroCal iTC₂₀₀ (GE Healthcare Life Sciences) at 25° C. in washing buffer (0.45% glucose, 5 mM MgCl₂, in Dulbecco's Phosphate-Buffered Saline). The unmodified MAGE-A3₁₁₁₋₁₂₅ peptide (0.3 mM, 200 μl) was titrated with 18 successive injections of 2 μl aptamer (0.1 mM) at 150 s intervals. The data were analyzed using MicroCal Origin 7 and fit with a one-set-of sites binding model to obtain values of enthalpy change (AH) and association constant (Kₐ).
On the technique in general: ITC needs no label: the signal is the heat of the interaction.

Series [2] has as its target NY-ESO-1 peptide 119-143 (UniProt P78358 P78358:119-143). In words: pulldown; specificity control peptide. The note with it: protein: synthetic; tags: peptide (synthetic, inferred), streptavidin beads.
Series [3] has as its target T2, NY-ESO-1 peptide 157-170 (UniProt P78358 P78358:157-170).
T2 chain: SLLMWITQCFLPVF
Nature of the series: pulldown; specificity control peptide. The note with it: protein: synthetic; tags: peptide (synthetic, inferred), streptavidin beads.

In series [4] the target is T3, NY-ESO-1 peptide 87-111 (UniProt P78358 P78358:87-111).
T3 chain: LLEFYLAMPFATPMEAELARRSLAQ
In words: pulldown; specificity control peptide. The note with it: protein: synthetic; tags: peptide (synthetic, inferred), streptavidin beads.

Series [5] concerns the target T1, MAGE-A3 peptide 111-125 (unmodified). In words: ITC; 25 C, DPBS with 0.45% glucose, 5 mM MgCl2; dH -41 kcal/mol. The note with it: protein: synthetic; tags: none; peptide (synthetic, inferred). How it is done:
as §1

B1: Ap52 (ssDNA)
DNA: ATCCAGAGTGACGCAGCAAGCACTCAATATTCCCTGGACACGGTGGCTTAGT
In the case of B1, the equilibrium dissociation constant (Kd) in series [1] was 57 nM. Further, the binding result in series [2], in series [3] and in series [4] was “no binding” in each case.

AGCACTCAATATTCCC (ssDNA) [Ap16] registered a Kd in series [5] of 95 nM.

As a reminder, the Kd is the concentration at which binding is half-saturated. Lower therefore signals tighter binding.
